From the DeepSol protein solubility set

Test: soluble on expression in E. coli; label from the status in PepcDB or PDB records
For “MMKAKVIDAVSFSYILRTVGDFLSEANFIVTKEGIRVSGIDPSRVVFLDIFLPSSYFEGFEVSQEKEIIGFKLEDVNDILKRVLKDDTLILSSNESKLTLTFDGEFTRSFELPLIQVESTSPPSVNLEFPFKAQLLTITFADIIDELSDLGEVLNIHSKENKLYFEVIGDLSTAKVELSTDNGTLLEASGADVSSSYGMEYVANTTKMRRASDSMELYFGSQIPLKLRFKLPQEGYGDFYIAPRAD”, the “soluble on expression in E. coli” value was “soluble”.
With “MSLYVVISPTGRTDGNIPARGYAGPSGRLDVIARAYNAILEPNATLAALLMGGPLPPRLLIAPLSCKDIVRSERSFMIEASRALRGRRSCFTVNDEGVEALASLLRRFKPRILLAEKGGDISSHWGEMCSSSPTFIAGSHLDPPHGLIKHLERSLGGFLRVSVGPLSLHTDHVFLLVSALRLPMHATSIEHH” the “soluble on expression in E. coli” value was “not soluble”.
For “MGDGAVKQGFLYLQQQQTFGKKWRRFGASLYGGSDCALARLELQEGPEKPRRCEAARKVIRLSDCLRVAEAGGEASSPRDTSAFFLETKERLYLLAAPAAERGDWVQAICLLAF”, the “soluble on expression in E. coli” value was “soluble”.
With “MDELNSPLGERAQGASLAHVVWSDPQWLERYPLTFENVLTYFSRSPFYDPTCNNELVRMQMHPELQGEMLYYTQREEELLLGMQGVEYVPLCSSDAHELFIIRKQVRRSADEVHVTNLYYILYGQVYEAPAFSTVLLVRLRQSADFLVRSLGLLRQWLSKKEYGEPGATGHGHEDTLLLQLLRKAQQRNRQL” the “soluble on expression in E. coli” value was “not soluble”.
In the case of “MTKTMIRLASEQDAEKLQQLMHEAFTPLRELGIDWPSVNANLDAVKENIDKNTTFVMTIDDEIISTITVRYPWGSVKSISGYPFVWWFATNPEYEGKGYGSQLLTYVEEAFLRDTLKSAAVTLGTSARLHPWLLKIYEKRGYEIYSEHENDDGDLGVIMRKVLIPERFDETILGQPPF”, the “soluble on expression in E. coli” value is reported as “not soluble”.
In the case of “GPGSMPALKPLLVFGLRGTLVERIHVRHVPEGMPAADFTVGLVKVWLRPHMVEVLNELQEHCRLAIWSSTTARNTHPLVNAVFGSNMTLQAGAGATTAAPARQEAASASAVVAASASNGRSGRFGTKRRPTKAEAADEESASEAAINAPKPQRVHFEFVWTREHTRVDDFRRLNAAVNDDSHATVKDLSQVFAQFPSIAQPQNTVLIDDTPSKAKMQADNYLWLDTCSNLRIKDETSLYRLRDFVMRELVPAEDVRELLPRRIRM”, the “soluble on expression in E. coli” value is reported as “soluble”.
In the case of “MMVVNIKMQQMKSQFIQYNDSNNKVLYQKCKPVADIQNAEIQNIITEMHEKMQGNGIGLAANQIGYPYQIFMIEFDSSNARYPFSFDSVPYQVFINPKITKASKQRVSFWHGCLSALGEKRGKLATYKEIEYEAYNQHGEKITGKLDSIAAIIFQHEFNHLLGSVYVDFDTEYIDNEELQAKFASGELKPYQECGEEVPLLLEKYQIGKNI”, the “soluble on expression in E. coli” value is reported as “not soluble”.
With “MRPDVAFALPALAGGGVERVYLDLAGAMVKEGLRVDFVLARAEGPLLAQLPQGVRLWDLGVPRRLPLLRAYTPLGVYLAQARPRVVLPDWDYLDWVPLQAAWRSRTPFLWVLHNAPAYLKDVPNPVKRHTALWAARQTLKRAVNHPLGRVGAVSRGVAQAFARFGGVPEERICVLPNPIHVDRVRRLSHENVPLPATPYFLALGRLHPQKGFSLLLEAFSIFAKHHPDVHLLILGEGPERPRLEKLAHTLGLTSRVAFLGFVVNPYPYLRGAKALVITSRYEGFSMVALEALALRVPVVAVESEGGLLEALGDGRFGIVTPRSPQALAHAMERVLSDGFAWDETALKDHLNQYSPEAALRSYMSVLEEIWR” the “soluble on expression in E. coli” value was “soluble”.
For “MGSDKIHHHHHHMEKNYYLTKTEQRIFNVIKHAKIITVREVAELFPELSRNMICKALSSLEKKGYLYRIKNGLYLIQQAPTKGSIIIEDPYRIALAMFSGYIAFSSALRLYNLIEYEPFTVFVATPRKSKKVEIDNYIIQAVALGEKATGITLYNGVYTSTLAKTFFDCFYKPQYCGGYETITKALYEAESIDWKEFLDYFKRFASPSLFQRTGYILELMNKELNFKIPKEVLEFFRSKVETKTKLVPTSPSRGKFIKEWKLLDNLGKDKILGWAYGY”, the “soluble on expression in E. coli” value was “not soluble”.
For “MGSDKIHHHHHHMTGTTENDNTGEDEKPKDEECAAIEHKDKFNPTAYLNSFYKTASEDTAMQIVLFFLPGILYRLPQKVRSVLDLGAGPTVYLPISLRDRAENIYTSDYAPANRDTLINWIEDKSDFDWDNVCSWIANIEASMETGKQMQNKTRKLMRAVLDVNVHESPVVQSIVWKENEQVQVPDKFQVVSTVFCLEYSCETLEAYFRAVRSACSLIDEGGILIQGGVLDATTYNFGGKTFRCHRLKQAHIIESLKANGMATTAEQGYKFITHDDIFLLVSKKL”, the “soluble on expression in E. coli” value was “not soluble”.
For “GPGSMQQPGSHQIQPIDSLTPFLGGKWWIRARVTDKTDIRTWNKPTSQGKLFSFTLIDESAAIRATVFNDAVDTFEPLIVNGQVYYFSGGQVKNANRRFSNVNNDYELTFDRSSEIMLARQDTSTAALPMQRYNFVPIELLKQREVGSLVDVLGVVLKVDEVSSITQKSTGRELMKRNVKMGDMTAAVEVTFWNDEAKAWCYPVGTVVALRQLKVGSFDGVTLSSTYQTKIDINPTDLPDVKKLATWYVATGGANVTSLSSQGLGAASGAGGESDRGRKYLDEIQSEGIGRGLKPEYVDVRCVPIYFKQDAQWYDACPTCNKKVTEEGAQGDRFRCEKCDKTVTPTQRYLVSIQVTDNVSQAWLTLFNEAGIEFFGMEAAELKRRAQEDPLYIAKLAQGRMNRPVVMRLRVKEEMSSNSMTGEESDRLRMSVVRISEFMPIAGTSEETRRRLAQNLRTECDEILRLIEAYV”, the “soluble on expression in E. coli” value was “not soluble”.
In the case of “MSLSMCGNKISVIRPLPAEVVKKIAAGEIIARPSSAIKELIENSVDAGATEIRVNLSSNPLDFCEIIDNGSGVSEKDLMIICQRYTTSKTTDSIEGVRSLGFRGEALSSLSQNSHVTISSRTENENMRTVMTYSECEPVLDEIRYEEGPRGFHLKYENLFYNYEIRSKSLLSNINSEFISCLHLVQKYSIHFPNINFVFNRTSSPILDLNNLNNVSSQQSSGSGSGDSCSSQPNCNFSTSSRFDDYDSSDDELDITLTQKLEYDYHYFTKMYDDPKSDDLRTEYIRNVEKVSFDCLRVIKENIKRIYGLKVSNVLQEVVFNNFDDLFFNCKGLISHPNQPCKLDMFILFVNNRLIDLPNLRRMIFNTYNDITNNRYRRFVYLSIFVPYDQIDSNIHPTKKRIMIENQAEIVEQITKFFHDKITELIKSATTEGHHHHHH”, the “soluble on expression in E. coli” value is reported as “soluble”.
For “MADGINSTVTVERSDGPRHRGTAAGIGGLDLDLEDVTHKELIEARRTGDVGLVHSWELVTAVDGPGTRMTMFMSGCPLRCLYCHNPDTMGMKEGTVERVESIVKKIKRYRNVFKASGGGLTISGGEPLFQIAFTRRVLKEVHDAGIHTTIDTSGYLGARLTDEDLENIDLVLLDVKSGDEETYHRVSGGRELQPTIDFGNRLNAIGKPVWIRFVLVPGVSDAPENINNVADIVAQWKDNVERVEVLPFHNMGADKWHELGLNYELEDTKPPTQESVEFAKETFRSRGLTVY”, the “soluble on expression in E. coli” value was “not soluble”.
With “GAMEATEIISTLSNGLIASHYGVSFFTIQSFVSSLSNTSTLKNMLYVLSTAVEFESVPLRKGDRALLVKLSKRLPLRFPEHTSSGSVSFKVFLLLQAYFSRLELPVDFQNDLKDILEKVVPLINVVVDILSANGYLNATTAMDLAQMLIQGVWDVDNPLRQIPHFNNKILEKCKEINVETVYDIMALEDEERDEILTLTDSQLAQVAAFVNNYPNVELTYSLNNSDSLISGVKQKITIQLTRDVEPENLQVTSEKYPFDKLESWWLVLGEVSKKELYAIKKVTLNKETQQYELEFDTPTSGKHNLTIWCVCDSYLDADKELSFEINVK” the “soluble on expression in E. coli” value was “soluble”.
With “MGSDKIHHHHHHMDDAMVSAVTCGAVMAFDRNIWIEKFLENSVPSFPCPHCSRGVLGFDGKSFWKEEPKHSKDAHAHDDWDPTWIEERFVMFLRCGVAKCGEVVAVSGNIEVEEVVDEDEGYDFASVLYPTSLVPAPPIIQMTDGTPDEVAGELSLAFQLFWADLGASATKIRTSVERLMDHFKVARYSRTKGKLKPIPLYNRIEAFIKANGKVVHQDHLHALRVVGNLGTHKNSLTRSDILEAFQVYEHALDELIGKKSASIAKLARKLKKK” the “soluble on expression in E. coli” value was “not soluble”.
In the case of “MGSDKIHHHHHHMSKRMIITVGDARVGKSTVIKLLLEIFAQQGKRIKVYNQESFPVFQAYEHIATIKKFNLSNDDADAITDDLNHPELDVMIVDMPGQDIEKVIQYIESASLFEVVVKFGWNLTFLQPISHRKDCIYYLNAIIQNATNNANYVVVKNYHFAPEFREYEEKMRKKLLIIGGTEVELMALHRNHYQAMEKADKPYSQVCQDLSIILFWRSFIFQWIKKFHHSVMNNHLAIKYLGLD”, the “soluble on expression in E. coli” value is reported as “not soluble”.
In the case of “MGSDKIHHHHHHMNQEKIQELVSRSQQDDKRAFALLVSEFQPLVFRLAFRLLCDEEEARDITQETFVKVWLSLKTYNQENRLSTWLYKITCNTCYDRLRSLRHSPLDNESAFSDSVNIPSDDHIEISLSNKQLKELILRYTNELPPQQKLVFTLRDVEELEVAEVQIITGLSPEKIKSTLYLARKNIRNKMNQIDPDL”, the “soluble on expression in E. coli” value is reported as “not soluble”.
In the case of “MGSDKIHHHHHHMTFLFFQPSSNIIKPYALMDLDDTLFQTQRKIDAWELPTTEPENLVCATVNKQGEPLSFMSQRQAAFFNWLLASTELIAVTARDRLEIKRVKLLFNSWQVLTHGAVILTSDGEPLSTWQQHMYNALIPLQDKINQLTEWVNSYSKESDRTHNDLKLTPHTDTFIDSELTIYLAIKHTQKDHQALAELATQLPTLIPDFDAHFYVHVNANNLAILPHAVHKRHAVQFLLEQHLDHQRPSFGFGDSLADLPFLQLLDWYGMPNHGQLHTQQ”, the “soluble on expression in E. coli” value is reported as “not soluble”.
In the case of “MGSDKIHHHHHHMPAILDLFNQKTVLDYVQNRQYPQLLGDTLFPSVKIDQLDFEYLRGGSKTPIIASVSAFDTEAEIGSREASVQAAELGYIKRKMQLKEKDLIALRNPRTPAEQNYLTSLVYNDLDVLVQGVYARVEKMRMEALATGTISIDENNMNFGVTYNVPAEHQVTAATSWDADGADPIKDLQDWFALLDYAPTRILTSSKVQTALIRSKAFADYFKTAGLLPSVGSLNAVLQSFGLPTIVTYDAKYRKQGANGIYTVERYFPEDTLVAFGDDQLGQTVYGPTPEESRLIATPGVQQGTVGNVFTTVYETTQDPIATWEKAAATALPSFPEAENVLQAKVLIPKP”, the “soluble on expression in E. coli” value is reported as “not soluble”.
In the case of “MQRNLSHIISQATSAPLLLEPAYARVFFCALGRESGINSLHIPGNNESLDQSDMALVTGDFMATGKPQARFYQVVNGIAVLPVTGTLVHKLGGMRPFSGMTGYDGVTARLQQAVSDPEVKGILLDIDSPGGQAAGAFDCADMIYRMREQKPVWALANETACSAAMLLAAACSHRLVTQTSRMGSIGVVMAHTSYAEKLKQEGIDITLIYSGAHKADLTPSQKLPESVYADYQQRMDEARKMFAEKVARYTGLSVDAVMATEAAVYDGQAIITTGLADGMVNAADAIGVMAEAINSNKTGGTMPELSAADAVTQENQRVMGILGCPEARGHEALAQMLAGQPGMSVAQAKSILAAAAPADTTSTADRILALEEAGGRETLAQTLAAMPEMTVEQARTILAASPIAAATSLHDAVMALDEAKGREELAEKLAVMPGMTTDQARDLLAAAPDKSGNAGLSMNNAFDAFMQSHSPGPISGGKGHSNDTETTLLMSIPGTSATLEHHHHHH”, the “soluble on expression in E. coli” value is reported as “not soluble”.
For “IDAPSFRDKRQADKLFEKDTMDWKVSINDKSIDYSQYKMPGKKGAFPYSNLDEQLAEYNELNGVYFSNGKRVELSELQATGTAKETHRVNSPLTKAKIAYLEMTDEERQLFMKWVSQQ”, the “soluble on expression in E. coli” value was “not soluble”.
